From publication PMC4383751 come the findings set out here.

The assay deals with wild-type pyruvate kinase isoform M2 (PKM2^WT) (human) (UniProt P14618). The assay can be described thus: SEC; gel filtration on Superdex 200 10/300 GL, in the absence of FBP; low protein concentration (less than 0.2 mg/mL); similar protein concentrations and conditions for all proteins; oxalate added in a further run (Fig. S1F). For orientation: SEC sorts molecules by how far they enter the pores of the column.

Sequence of wild-type pyruvate kinase isoform M2 (PKM2^WT), P14618 1-531 (enzyme; other documents disagree on this pair) (P14618 whole entry, canonical isoform): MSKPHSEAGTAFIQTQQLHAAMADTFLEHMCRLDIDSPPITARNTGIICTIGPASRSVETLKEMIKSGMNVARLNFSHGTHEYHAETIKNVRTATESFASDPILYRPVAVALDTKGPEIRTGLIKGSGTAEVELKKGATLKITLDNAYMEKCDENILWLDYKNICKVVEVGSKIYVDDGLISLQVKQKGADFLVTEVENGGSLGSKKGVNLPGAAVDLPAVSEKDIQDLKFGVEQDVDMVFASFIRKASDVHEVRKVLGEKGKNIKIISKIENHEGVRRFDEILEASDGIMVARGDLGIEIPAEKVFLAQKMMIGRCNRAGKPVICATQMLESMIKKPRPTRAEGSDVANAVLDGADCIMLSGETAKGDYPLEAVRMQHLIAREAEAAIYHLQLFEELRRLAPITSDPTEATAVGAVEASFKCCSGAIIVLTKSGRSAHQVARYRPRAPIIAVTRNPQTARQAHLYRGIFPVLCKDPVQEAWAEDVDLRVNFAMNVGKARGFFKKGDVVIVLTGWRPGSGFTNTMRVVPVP

A word on the stoichiometry N: it is the number of molecules, sites or subunits per partner or assembly. Consider “wild-type pyruvate kinase isoform M2 (PKM2^WT), P14618 1-531 (enzyme; other documents disagree on this pair)”, for which the stoichiometry N came to 2.
